We go through 2 proteins from PMC6509496, “Crystal structure of the TreS:Pep2 complex, initiating α-glucan synthesis in the GlgE pathway of mycobacteria” (The Journal of Biological Chemistry, 2019).

This data set deals with the molecule itself. The experiment in a line: SEC.

Substitutions are numbered along the chain they refer to. Names may count otherwise.

B1: Mycobacterium tuberculosis TreS P511W (enzyme)
chain: MNEAEHSVEHPPVQGSHVEGGVVEHPDAKDFGSAAALPADPTWFKHAVFYEVLVRAFFDASADGSGDLRGLIDRLDYLQWLGIDCIWLPPFYDSPLRDGGYDIRDFYKVLPEFGTVDDFVALVDAAHRRGIRIITDLVMNHTSESHPWFQESRRDPDGPYGDYYVWSDTSERYTDARIIFVDTEESNWSFDPVRRQFYWHRFFSHQPDLNYDNPAVQEAMIDVIRFWLGLGIDGFRLDAVPYLFEREGTNCENLPETHAFLKRVRKVVDDEFPGRVLLAEANQWPGDVVEYFGDPNTGGDECHMAFHFPLMPRIFMAVRRESRFPISEIIAQTPPIPDMAQWGIFLRNHDELTLEMVTDEERDYMYAEYAKDPRMKANVGIRRRLAPLLDNDRNQIELFTALLLSLPGSPVLYYGDEIGMGDVIWLGDRDGVRIPMQWTPDRNAGFSTANPGRLYLPPSQDPVYGYQAVNVEAQRDTSTSLLNFTRTMLAVRRRHPAFAVGAFQELGGSNWSVLAYVRQVAGDDGDTVLCVNNLSRFPQPIELDLQQWTNYTPVELTGHVEFPRIGQVPYLLTLPGHGFYWFQLTTHEVGAPPTCGGERRL
notes: also called Mtb TreS-P511W
Consider B1, for which the binding result is “binds”.

B2: Mycobacterium tuberculosis TreS R320E (enzyme)
chain: B1 chain with R320E, W511P
notes: also called Mtb TreS-R320E
Consider B2, for which the binding result is reported as “binds”.
